Source: patent publication US20110008369A1

Target: human PD-1 (Programmed Cell Death 1), expressed on cells (human) (UniProt Q15116)
Assay: cell binding; 0.2 ug/ml IgG on activated human CD4+ cells, 37 C

Chain of human PD-1 (Programmed Cell Death 1), expressed on cells (human) (Q15116 25-288 limits assumed): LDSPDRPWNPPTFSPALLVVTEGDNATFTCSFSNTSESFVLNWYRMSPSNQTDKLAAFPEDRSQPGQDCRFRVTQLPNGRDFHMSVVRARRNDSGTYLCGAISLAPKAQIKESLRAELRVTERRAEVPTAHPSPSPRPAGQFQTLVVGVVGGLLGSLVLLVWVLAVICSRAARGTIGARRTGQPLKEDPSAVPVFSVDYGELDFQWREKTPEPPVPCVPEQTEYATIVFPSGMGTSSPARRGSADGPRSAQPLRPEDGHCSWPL

B1: mAb 6D10 (antibody, part only; not given: light chain variable domain, V domains shown, part only)
VH: EVKLVESGGGLVQPGGSRKLSCAASGFTFSSFGMHWVRQAPEKGLEWVAYVSSASSVIHYADTVKGRFTISRDNPKNTLFLQMTSLRSEDTAMYYCARSGYYGTWFPYWGQGTLVTVS
Work on B1 yielded an MFI of 133 MFI.
